The text below walks through data of patent US8703452B2, “Extracellular aldonolactonase” (The Regents of the University of California, priority 2010, dated 2014).

Data set [1] addresses S. thermophile aldonolactonase 1 (Thermothelomyces thermophilus, UniProt E5LEX3). The following applies: substrate specificity. The protocol: (§1) Aldonolactonase activity was measured as described by Hestrin (21). The reactions were carried out in triplicate in 96-well microtiter plates. Briefly, 100 μL of 100 mM freshly dissolved sugar lactone was immediately mixed with 100 μL of 10 nM aldonolactonase enzyme buffered in 100 mM sodium acetate pH 5.0 for 1 minute at 25° C. The reaction was quenched by adding 40 μL of alkaline hydroxylamine (2.0 M hydroxylamine hydrochloride, 1.5 M sodium hydroxide) for 1 minute. Twenty microliters of 4.0 M hydrochloric acid was then added to acidify the solution and stabilize the sugar hydroxamate. Color was developed by adding 20 μL of 0.5 M ferric chloride (FeCl3) and the absorbance at 540 nm was measured. For all experiments, control measurements were made on control samples where no enzyme was added. The background hydrolysis was subtracted from the total hydrolysis in the presence of enzyme.

Data set [2] concerns S. thermophile Aldonolactonase 2 (Spoth1189286). Put plainly: Standard gluconolactonase assay with recombinant S. thermophile aldonolactonase 2. Type of data set: biochemical, Sporotrichum thermophile. The following applies: unpurified concentrate, expressed in N. crassa. How it is done:
as §1, with “Lactonase activity on gluconolactone was confirmed using the standard gluconolactonase assay (as described in other sections). The protein was not further purified because the affinity purification tag was removed by endogenous proteases in N. crassa. Aldonolactonase” for “Aldonolactonase”, “Hestrin” left out, “Color was developed by adding 20 μL of 0.5 M ferric chloride (FeCl3) and the absorbance at 540 nm was measured.” left out, “enzyme. This typically amounted to less than 10% of the total lactone.” for “enzyme.”

For data set [3] the following is noted: cited from earlier work.
Data set [4] in a line: Aldonolactonase activity of enzyme preparations on glucono-δ-lactone. The class given is biochemical. Conditions: glucono-δ-lactone as substrate, 25° C., pH 5.0. How it is done: as §1, with “enzyme. This typically amounted to less than 10% of the total lactone.” for “enzyme.”
Data set [5] can be described thus: pH profile of S. thermophile aldonolactonase 1. Conditions: from pH 3.0 to pH 8.0; 10 nM enzyme, 50 mM glucono-δ-lactone, room temperature. The class given is biochemical. The protocol:
FIG. 9 depicts the pH profile of S. thermophile aldonolactonase 1. Reactions were conducted at room temperature for 1 minute with 10 nM aldonolactonase, 50 mM glucono-δ-lactone, and 100 mM buffer. Buffers used included sodium citrate, pH 3.0; sodium acetate, pH 4.0; sodium acetate, pH 5.0; sodium succinate, pH 6.0; HEPES, pH 7.0; and Tris, pH 8.0. Error bars represent the standard deviation of three replicate experiments.

A short description of data set [6]: Stability of aldonolactonase activity. Type of data set: physicochemical. The source says: Sporotrichum thermophile is a thermophilic fungus isolated from soil and self-heating compost (3). […] During development of the present disclosure, an enzyme involved in the process of cellulose degradation was isolated from S. thermophile. As disclosed herein, an enzyme containing extracellular aldonolactonase activity was purified, identified, and characterized from the thermophilic ascomycete S. thermophile. The S. thermophile aldonolactonase hydrolyzes hexose δ-lactones over a broad range of pH values. […] (the growth condition for production of the enzyme). The expression profile and kinetic parameters of the S. thermophile aldonolactonase were determined on different substrates. The results disclosed herein provide insight into how S. thermophile utilizes aldonolactonase in nutrient acquisition, especially from hexose δ-lactones and how this enzyme can be utilized for biofuel production.
After 48 hours of growth on complex media containing cellulose, S. thermophile mycelia and residual cellulose were removed from the culture by filtering over 0.2 micron polyethersulfone (PES) filters. The filtered culture broth was then concentrated and buffer exchanged using tangential flow filtration with a 10 kDa molecular weight cut-off (MWCO) PES membrane (Millipore, Billerica, Mass.) into 25 mM 4-(2-hydroxyethyl)-1-piperazineethanesulfonic acid (HEPES) buffer, pH 7.4. […]

Substrate in data set [7]: O=C1O[C@H](CO)[C@@H](O)[C@H](O)[C@H]1O
The experiment in a line: purified protein, by the assay type.

Substrate in data set [8]: O=C1O[C@H](CO)[C@@H](O[C@@H]2O[C@H](CO)[C@@H](O)[C@H](O)[C@H]2O)[C@H](O)[C@H]1O
The experiment in a line: purified protein, by the assay type. The following applies: other: steady-state kinetic constants; substrate of S. thermophile aldonolactonase 1; pH 5.0; 25.0 °C.

Substrate in data set [9]: O=C1O[C@H](CO)[C@@H](O[C@@H]2O[C@H](CO)[C@H](O)[C@H](O)[C@H]2O)[C@H](O)[C@H]1O
The experiment in a line: purified protein, by the assay type. The following applies: other: steady-state kinetic constants; substrate of S. thermophile aldonolactonase 1; pH 5.0; 25.0 °C.

The mark [10] stands for this setting: other: steady-state kinetic constants, substrate of S. thermophile aldonolactonase 1, pH 5.0, 25.0 °C.

One may read the kcat/Km as the turnover number divided by the Michaelis constant. As a reminder, the Km is the substrate concentration at which the rate is half of its maximum. As a reminder, the kcat is the number of substrate molecules converted per active site and unit of time at saturation.

Consider `O=C1O[C@H](CO)[C@H](O)[C@H]1O` [Xylonolactone], for which the “hydrolysis by S. thermophile aldonolactonase 1” value (“hydrolysis” for short) in data set [1] is reported as “not hydrolyzed”.
With `O=C1O[C@H](CO)[C@@H](O[C@@H]2O[C@H](CO)[C@@H](O)[C@H](O)[C@H]2O)[C@H](O)[C@H]1O` [D-Cellobiono-δ-lactone], in [1], the “hydrolysis” value is recorded as “completely hydrolyze”.
On the same count and under the same terms, the same measure for `O=C1O[C@H](CO)[C@@H](O[C@@H]2O[C@H](CO)[C@H](O)[C@H](O)[C@H]2O)[C@H](O)[C@H]1O` [D-Lactono-δ-lactone]: “completely hydrolyze”.
As to `O=C1O[C@H](CO)[C@@H](O)[C@H](O)[C@H]1O` [D-Glucono-δ-lactone], the “hydrolysis” value in data set [1] is recorded as “completely hydrolyze”. Also, the “lactonase activity on gluconolactone” value in data set [2] is given as “confirmed”. Moreover, the “equilibrium constant between glucono-δ-lactone and gluconic acid” value in data set [3] (favoring gluconic acid) was 7.7. Also, the half-life result in [3] (in water at room temperature and pH 5.0) is given as “approximately 1 hour”.
With `O=C1O[C@H](CO)[C@@H](O)[C@@H]1O` [arabinolactone], in [1], the “hydrolysis” value was “not hydrolyzed”.

B1: S. thermophile aldonolactonase 1: extracellular aldonolactonase purified from S. thermophile culture broth, encoded by Spoth11109678 (SEQ ID NO: 1) (protein)
chain: MRTSYGVAFALSAGFRLATAAPVCGGGSASDLLWVTTYPAGEGAQGKLLTLKLDGSKLVVAESDTCGPYPSWLTQAGDVLYCVDEAWGGDHGTLHSLKINDDHSFTNLSQHETVGGPVSTVIYGKDGLGLAVADYAGGGIDTFNIADPAAIKLIKSLVYPAPTDGLPDPQNSARPHEAILDPTGEFLVFPDLGADQIRVLKVDKETLEYVEKPSYTDFDRGTGPRHGAFFKSGDKTFFYLVGELSNLLQGFSVAYNDDDSLTFTRIHNSTTHGDDKPLPEDTAAAELWIAPGSNFLTLSSRFESSLEYTVANGTKVPSDPLITFSIDKETGALTHVQSAPAGGINPRHFSFNSDGTRVASALQSDGRVVVFERDPSTGKIGKATAEGDVEGMPNFATFKQ
modifications: Sporotrichum thermophile; extracellular aldonolactonase 1
Regarding B1, in data set [4], the “activity relative to that reported for lactonases isolated from other filamentous fungi” value is “approximately 20 fold”. The same molecule had a change in activity in data set [5] of 3 fold. In addition, in [6] (50° C. (growth condition for production of the enzyme)), the stability result is given as “stable for several days”. Further, in data set [6] (stored at −80° C.), the “storage stability of aldonolactonase activity” value is “stable for several months”.

B2: S. thermophile aldonolactonase 1 (Thermothelomyces thermophilus) (protein)
chain: APVCGGGSASDLLWVTTYPAGEGAQGKLLTLKLDGSKLEVVAESDTCGPYPSWLTQAGDVLYCVDEAWGGDHGTLHSLKINDDHSFTNLSQHETVGGPVSTVIYGKDGLGLAVADYAGGGIDTFNIADPAAIKLIKSLVYPAPTDGLPDPQNSARPHEAILDPTGEFLVFPDLGADQIRVLKVDKETLEYVEKPSYTDFDRGTGPRHGAFFKSGDKTFFYLVGELSNLLQGFSVAYNDDDSLTFTRIHNSTTHGDDKPLPEDTAAAELWIAPGSNFLTLSSRFESSLEYTVANGTKVPSDPLITFSIDKETGALTHVQSAPAGGINPRHFSFNSDGTRVASALQSDGRVVVFERDPSTGKIGKATAEGDVEGMPNFATFKQ
Take B2: the kcat/Km in data set [7] (other: 25° C. and pH 5.0) stood at 600000 M⁻¹ s⁻¹; in [7] (setting [10]), 580000 M⁻¹ s⁻¹; in data set [8], 1.35e+06 ± 120000 M⁻¹ s⁻¹; in [9], 1.25e+06 ± 520000 M⁻¹ s⁻¹. The Km in data set [7] (setting [10]) amounted to 20.3 mM; in data set [8], 21.6 mM; in data set [9], 5.9 mM. Besides, the kcat in data set [7] (setting [10]) was 11700 s⁻¹; in data set [8], 29100 s⁻¹; in data set [9], 7400 s⁻¹.
